Experimental data as given in publication PMC7034832, “Systematic analysis of the binding behaviour of UHRF1 towards different methyl- and carboxylcytosine modification patterns at CpG dyads”.

T1: SRA domain of mouse UHRF1 (Mus musculus, UniProt Q8VDF2 419-628)
T1 sequence: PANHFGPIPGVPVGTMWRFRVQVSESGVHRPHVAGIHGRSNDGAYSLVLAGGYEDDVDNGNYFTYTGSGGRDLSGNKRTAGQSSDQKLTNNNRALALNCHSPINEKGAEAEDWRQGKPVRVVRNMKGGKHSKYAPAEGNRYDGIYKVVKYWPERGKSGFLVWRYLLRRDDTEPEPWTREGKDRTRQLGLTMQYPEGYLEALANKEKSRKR

T2: GFP-mUHRF1 (Np95) (Mus musculus, UniProt Q8VDF2 1-782)
T2 sequence: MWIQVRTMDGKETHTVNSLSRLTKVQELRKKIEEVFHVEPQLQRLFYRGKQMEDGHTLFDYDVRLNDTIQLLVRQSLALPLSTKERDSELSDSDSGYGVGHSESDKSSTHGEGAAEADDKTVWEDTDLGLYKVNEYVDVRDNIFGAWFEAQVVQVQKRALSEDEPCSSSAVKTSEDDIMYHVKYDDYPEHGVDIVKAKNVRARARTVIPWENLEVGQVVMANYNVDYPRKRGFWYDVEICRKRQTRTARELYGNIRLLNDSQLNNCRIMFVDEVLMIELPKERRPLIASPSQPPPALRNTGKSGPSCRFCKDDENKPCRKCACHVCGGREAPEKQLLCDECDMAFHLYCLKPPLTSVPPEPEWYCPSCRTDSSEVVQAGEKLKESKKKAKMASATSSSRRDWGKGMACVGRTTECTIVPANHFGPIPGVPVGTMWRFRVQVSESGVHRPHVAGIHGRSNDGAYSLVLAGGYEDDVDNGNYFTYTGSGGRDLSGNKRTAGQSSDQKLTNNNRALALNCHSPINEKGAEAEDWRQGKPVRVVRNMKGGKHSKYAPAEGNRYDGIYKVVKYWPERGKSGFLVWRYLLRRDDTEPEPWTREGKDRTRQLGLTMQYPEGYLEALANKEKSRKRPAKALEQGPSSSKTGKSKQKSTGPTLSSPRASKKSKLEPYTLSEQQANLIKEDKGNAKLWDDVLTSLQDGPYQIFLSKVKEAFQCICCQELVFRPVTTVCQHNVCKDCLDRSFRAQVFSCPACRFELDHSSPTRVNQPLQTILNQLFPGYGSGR

T3: mUHRF2-GFP (Mus musculus, UniProt Q7TMI3 1-803)
T3 sequence: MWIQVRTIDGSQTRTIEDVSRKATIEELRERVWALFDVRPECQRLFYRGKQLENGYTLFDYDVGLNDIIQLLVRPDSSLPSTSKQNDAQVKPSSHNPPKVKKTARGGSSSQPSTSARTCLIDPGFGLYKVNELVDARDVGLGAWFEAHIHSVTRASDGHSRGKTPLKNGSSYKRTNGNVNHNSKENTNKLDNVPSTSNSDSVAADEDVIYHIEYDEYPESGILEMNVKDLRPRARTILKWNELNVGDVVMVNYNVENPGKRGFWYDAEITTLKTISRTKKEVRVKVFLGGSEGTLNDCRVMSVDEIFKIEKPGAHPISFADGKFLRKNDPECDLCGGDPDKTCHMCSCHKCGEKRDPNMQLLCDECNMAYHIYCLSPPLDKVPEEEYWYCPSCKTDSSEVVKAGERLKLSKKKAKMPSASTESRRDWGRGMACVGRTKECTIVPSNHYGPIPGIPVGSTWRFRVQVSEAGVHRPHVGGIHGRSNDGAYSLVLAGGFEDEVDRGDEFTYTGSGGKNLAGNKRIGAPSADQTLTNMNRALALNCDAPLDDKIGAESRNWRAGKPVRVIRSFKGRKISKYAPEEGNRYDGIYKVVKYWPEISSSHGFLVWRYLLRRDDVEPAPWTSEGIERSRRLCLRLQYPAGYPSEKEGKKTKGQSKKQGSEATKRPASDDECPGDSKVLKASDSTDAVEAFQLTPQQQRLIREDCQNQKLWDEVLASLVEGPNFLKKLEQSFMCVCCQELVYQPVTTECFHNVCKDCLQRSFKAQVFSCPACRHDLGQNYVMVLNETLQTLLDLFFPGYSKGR

B1: 42 bp C-C' (dsDNA)
DNA 1: GGATGATGACTCTTCTGGTCCGGATGGTAGTTAAGTGTTGAG
DNA 2: CTCAACACTTAACTACCATCCGGACCAGAAGAGTCATCATCC
modifications: none
B2: 42 bp caC-C' (dsDNA)
DNA 1: B1 DNA 1
DNA 2: B1 DNA 2
modifications: 5-carboxylcytosine at central CpG, one strand
B3: 42 bp caC-caC' (dsDNA)
DNA 1: B1 DNA 1
DNA 2: B1 DNA 2
modifications: 5-carboxylcytosine at central CpG, both strands
B4: 42 bp mC-caC' (dsDNA)
DNA 1: B1 DNA 1
DNA 2: B1 DNA 2
modifications: 5-methylcytosine on one strand, 5-carboxylcytosine on the other at central CpG
B5: 42 bp mC-C' (dsDNA)
DNA 1: B1 DNA 1
DNA 2: B1 DNA 2
modifications: 5-methylcytosine at central CpG, one strand

What was measured:
[1] = molecular target: T1, SRA domain of mouse UHRF1; assay: MST; MST: PBS-T (0.05% Tween-20), 50 nM labelled SRA, 20 min, room temperature; EMSA: 20 mM Tris-HCl pH 7.5, 150 mM NaCl, 0.5 mM EDTA, 1 mM DTT, 100 ng/ul BSA, 250 nM of each DNA, 4.69-300 nM protein, 30 min on ice, 6% PAGE 0.5x TBE; melting: 50 mM Tris-HCl pH 7.5, 0.5 mM b-ME, 10 mM EDTA; conditions: protein: recombinant, tags: His6, NT-647 (RED-tris-NTA) label in MST
[2] = molecular target: T2, GFP-mUHRF1 (Np95); assay: EMSA, two-colour competition; ATTO647N C-C' DNA as competitor; MST: PBS-T (0.05% Tween-20), 50 nM labelled SRA, 20 min, room temperature; EMSA: 20 mM Tris-HCl pH 7.5, 150 mM NaCl, 0.5 mM EDTA, 1 mM DTT, 100 ng/ul BSA, 250 nM of each DNA, 4.69-300 nM protein, 30 min on ice, 6% PAGE 0.5x TBE; melting: 50 mM Tris-HCl pH 7.5, 0.5 mM b-ME, 10 mM EDTA; conditions: protein: recombinant; tags: GFP (N-terminal by name); label: ATTO550 (EMSA)
[3] = molecular target: T3, mUHRF2-GFP; assay: as above; conditions: protein: recombinant; tags: GFP (C-terminal by name); label: ATTO550 (EMSA)

Row | Binder | Kd ([1]; label: ATTO550 (EMSA)) [nM] | binding signal [2] [fold vs C-C'] | also measured
1 | B1 | – | – | Kd ([1]; label: ATTO550 or ATTO647N (EMSA)): 1100 ± 150 nM
2 | B2 | 1100 ± 290 | – | –
3 | B3 | 230 ± 50 | ~2 | binding signal [3]: ~2 fold vs C-C'
4 | B4 | – | – | Kd [1]: 390 ± 110 nM
5 | B5 | 750 ± 110 | ~1.5 | –
